Numbering of substitutions follows the chain as printed.
B1: BAP049-hum02 (antibody, human IgG4 S228P, kappa, V domains shown)
VH: EVQLVQSGAEVKKPGESLRISCKGSGYTFTTYWMHWVRQATGQGLEWMGNIYPGTGGSNFDEKFKNRVTITADKSTSTAYMELSSLRSEDTAVYYCTRWTTGTGAYWGQGTTVTVSS
VL: DIQMTQSPSSLSASVGDRVTITCKSSQSLLDSGNQKNFLTWYQQKPGQAPRLLIYWASTRESGIPPRFSGSGYGTDFTLTINNIESEDAAYYFCQNDYSYPYTFGQGTKVEIKR
notes: also called clone 2
B2: BAP049-hum03 (antibody, human IgG4 S228P, kappa, V domains shown)
VH: EVQLVQSGAEVKKPGESLRISCKGSGYTFTTYWMHWIRQSPSRGLEWLGNIYPGTGGSNFDEKFKNRFTISRDNSKNTLYLQMNSLRAEDTAVYYCTRWTTGTGAYWGQGTTVTVSS
VL: B1 VL
notes: also called clone 3
B3: BAP049-hum12 (antibody, human IgG4 S228P, kappa, V domains shown)
VH: B1 VH
VL: DIQMTQSPSSLSASVGDRVTITCKSSQSLLDSGNQKNFLTWYLQKPGQSPQLLIYWASTRESGVPSRFSGSGSGTDFTFTISSLEAEDAATYYCQNDYSYPYTFGQGTKVEIKR
notes: also called clone 12
B4: BAP049-hum13 (antibody, human IgG4 S228P, kappa)
heavy chain: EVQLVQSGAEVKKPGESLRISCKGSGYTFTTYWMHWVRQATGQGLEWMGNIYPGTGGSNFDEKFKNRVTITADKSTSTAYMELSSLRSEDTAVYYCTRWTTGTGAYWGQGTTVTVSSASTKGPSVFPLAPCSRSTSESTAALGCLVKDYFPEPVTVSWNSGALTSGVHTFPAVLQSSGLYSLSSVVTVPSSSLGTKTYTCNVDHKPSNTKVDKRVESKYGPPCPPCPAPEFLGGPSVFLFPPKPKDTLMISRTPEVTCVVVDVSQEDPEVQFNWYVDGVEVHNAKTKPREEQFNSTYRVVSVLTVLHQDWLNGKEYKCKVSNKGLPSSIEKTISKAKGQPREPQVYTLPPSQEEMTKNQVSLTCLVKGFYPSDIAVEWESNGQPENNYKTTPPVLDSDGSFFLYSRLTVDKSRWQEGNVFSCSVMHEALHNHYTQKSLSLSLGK
light chain: DVVMTQSPLSLPVTLGQPASISCKSSQSLLDSGNQKNFLTWYQQKPGKAPKLLIYWASTRESGVPSRFSGSGSGTDFTFTISSLEAEDAATYYCQNDYSYPYTFGQGTKVEIKRTVAAPSVFIFPPSDEQLKSGTASVVCLLNNFYPREAKVQWKVDNALQSGNSQESVTEQDSKDSTYSLSSTLTLSKADYEKHKVYACEVTHQGLSSPVTKSFNRGEC
notes: also called clone 13
B5: Chi mAb (Tyr) (antibody, human IgG4 S228P, kappa, V domains shown)
VH: QVQLQQSGSELVRPGASVKLSCKASGYTFTTYWMHWVRQRPGQGLEWIGNIYPGTGGSNFDEKFKNRTSLTVDTSSTTAYMHLASLTSEDSAVYYCTRWTTGTGAYWGQGTTVTVSS
VL: DIVMTQSPSSLTVTAGEKVTMSCKSSQSLLDSGNQKNFLTWYQQKPGQPPKLLIFWASTRESGVPDRFTGSGSVTDFTLTISSVQAEDLAVYYCQNDYSYPYTFGQGTKVEIKR
notes: also called BAP049-chi-Y; Chi (Tyr)
B6: Mu mAb (antibody, V domains shown)
VH: B5 VH with T112L, S117A
VL: DIVMTQSPSSLTVTAGEKVTMSCKSSQSLLDSGNQKNFLTWYQQKPGQPPKLLIFWASTRESGVPDRFTGSGSVTDFTLTISSVQAEDLAVYYCQNDYSYPCTFGGGTKLEIK
notes: also called murine mAb BAP049; murine anti-PD-1 mAb BAP049
B7: BAP049-hum16 (antibody, human IgG4 S228P, kappa, V domains shown)
VH: B2 VH with I37V, S40A, S42G, R43Q, L48M
VL: EIVLTQSPDFQSVTPKEKVTITCKSSQSLLDSGNQKNFLTWYQQKPGQAPRLLIYWASTRESGVPSRFSGSGSGTDFTFTISSLEAEDAATYYCQNDYSYPYTFGQGTKVEIKR
notes: also called clone 16
B8: BAP049-hum10 (antibody, human IgG4 S228P, kappa)
heavy: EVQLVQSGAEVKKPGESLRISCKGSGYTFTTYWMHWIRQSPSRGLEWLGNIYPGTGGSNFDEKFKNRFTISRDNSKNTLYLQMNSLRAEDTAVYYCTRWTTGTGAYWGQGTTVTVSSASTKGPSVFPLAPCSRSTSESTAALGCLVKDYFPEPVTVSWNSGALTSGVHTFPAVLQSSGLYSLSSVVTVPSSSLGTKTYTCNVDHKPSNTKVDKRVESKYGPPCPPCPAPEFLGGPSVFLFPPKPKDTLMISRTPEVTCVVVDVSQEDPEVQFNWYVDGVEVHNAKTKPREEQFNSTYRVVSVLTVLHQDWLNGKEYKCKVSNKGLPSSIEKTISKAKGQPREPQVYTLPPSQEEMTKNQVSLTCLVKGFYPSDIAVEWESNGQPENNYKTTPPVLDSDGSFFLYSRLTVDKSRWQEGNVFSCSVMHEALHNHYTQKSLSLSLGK
light: EIVLTQSPATLSLSPGERATLSCKSSQSLLDSGNQKNFLTWYQQKPGQAPRLLIYWASTRESGVPSRFSGSGSGTDFTFTISSLEAEDAATYYCQNDYSYPYTFGQGTKVEIKRTVAAPSVFIFPPSDEQLKSGTASVVCLLNNFYPREAKVQWKVDNALQSGNSQESVTEQDSKDSTYSLSSTLTLSKADYEKHKVYACEVTHQGLSSPVTKSFNRGEC
notes: also called humanized BAP049 clone hum10
B9: BAP049-hum15 (antibody, human IgG4 S228P, kappa)
heavy chain: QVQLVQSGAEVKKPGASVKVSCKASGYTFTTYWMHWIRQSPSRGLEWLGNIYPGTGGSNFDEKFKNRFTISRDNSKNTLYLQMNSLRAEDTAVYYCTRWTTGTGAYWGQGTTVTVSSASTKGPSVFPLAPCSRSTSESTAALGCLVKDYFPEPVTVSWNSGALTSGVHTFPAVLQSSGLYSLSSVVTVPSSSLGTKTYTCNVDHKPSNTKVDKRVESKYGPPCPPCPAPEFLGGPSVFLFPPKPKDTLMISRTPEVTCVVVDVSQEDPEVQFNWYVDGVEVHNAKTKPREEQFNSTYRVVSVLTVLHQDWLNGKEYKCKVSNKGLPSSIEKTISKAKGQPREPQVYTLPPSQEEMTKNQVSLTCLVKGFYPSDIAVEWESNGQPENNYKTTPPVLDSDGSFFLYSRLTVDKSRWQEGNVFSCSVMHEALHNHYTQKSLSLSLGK
light chain: B8 light with A9D, T10F, L11Q, L13V, S14T, G16K, R18K, A19V, L21I, S22T
notes: also called clone 15
B10: BAP049-hum11 (antibody, human IgG4 S228P, kappa)
heavy: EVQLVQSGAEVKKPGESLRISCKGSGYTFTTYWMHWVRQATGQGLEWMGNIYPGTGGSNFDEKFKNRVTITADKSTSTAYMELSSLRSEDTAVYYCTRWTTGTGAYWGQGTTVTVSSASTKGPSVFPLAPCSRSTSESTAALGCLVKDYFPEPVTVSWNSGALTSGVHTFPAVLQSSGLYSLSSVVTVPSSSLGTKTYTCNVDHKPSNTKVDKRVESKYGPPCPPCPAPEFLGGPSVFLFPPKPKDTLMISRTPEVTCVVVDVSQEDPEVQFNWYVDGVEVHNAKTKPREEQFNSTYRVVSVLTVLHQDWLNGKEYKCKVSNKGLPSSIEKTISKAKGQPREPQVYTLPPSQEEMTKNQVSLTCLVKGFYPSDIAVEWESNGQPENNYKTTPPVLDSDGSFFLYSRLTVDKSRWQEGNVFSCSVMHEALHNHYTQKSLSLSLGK
light: B8 light
notes: also called humanized BAP049 clone hum11
B11: BAP049-hum08 (antibody, human IgG4 S228P, kappa)
heavy: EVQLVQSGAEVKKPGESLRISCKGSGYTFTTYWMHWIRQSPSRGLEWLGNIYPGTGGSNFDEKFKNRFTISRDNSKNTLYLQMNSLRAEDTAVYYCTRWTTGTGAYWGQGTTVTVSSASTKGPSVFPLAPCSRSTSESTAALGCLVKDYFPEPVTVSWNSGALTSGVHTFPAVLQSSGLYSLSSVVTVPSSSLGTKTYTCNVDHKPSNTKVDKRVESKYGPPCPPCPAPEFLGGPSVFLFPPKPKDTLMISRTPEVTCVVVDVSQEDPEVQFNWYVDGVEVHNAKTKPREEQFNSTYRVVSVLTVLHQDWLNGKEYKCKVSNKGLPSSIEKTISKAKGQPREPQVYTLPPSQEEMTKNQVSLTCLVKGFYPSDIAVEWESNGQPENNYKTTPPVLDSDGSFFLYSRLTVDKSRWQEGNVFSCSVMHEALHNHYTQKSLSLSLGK
light: B8 light with A9D, T10F, L11Q, L13V, S14T, G16K, R18K, A19V, L21I, S22T
notes: also called humanized BAP049 clone hum08
B12: BAP049-hum05 (antibody, human IgG4 S228P, kappa, V domains shown)
VH: B1 VH
VL: EIVLTQSPATLSLSPGERATLSCKSSQSLLDSGNQKNFLTWYQQKPGKAPKLLIYWASTRESGVPSRFSGSGSGTDFTFTISSLQPEDIATYYCQNDYSYPYTFGQGTKVEIKR
notes: also called humanized BAP049 clone hum05
B13: BAP049-hum01 (antibody, human IgG4 S228P, kappa, V domains shown)
VH: B1 VH
VL: B12 VL with K48Q, K51R, D76E, F79L, E87D, I89F
notes: Humanized anti-PD-1 mAb; also called humanized BAP049 clone hum01
B14: BAP049-hum04 (antibody, human IgG4 S228P, kappa, V domains shown)
VH: B2 VH
VL: B12 VL
notes: also called clone 4
B15: BAP049-hum14 (antibody, human IgG4 S228P, kappa)
heavy chain: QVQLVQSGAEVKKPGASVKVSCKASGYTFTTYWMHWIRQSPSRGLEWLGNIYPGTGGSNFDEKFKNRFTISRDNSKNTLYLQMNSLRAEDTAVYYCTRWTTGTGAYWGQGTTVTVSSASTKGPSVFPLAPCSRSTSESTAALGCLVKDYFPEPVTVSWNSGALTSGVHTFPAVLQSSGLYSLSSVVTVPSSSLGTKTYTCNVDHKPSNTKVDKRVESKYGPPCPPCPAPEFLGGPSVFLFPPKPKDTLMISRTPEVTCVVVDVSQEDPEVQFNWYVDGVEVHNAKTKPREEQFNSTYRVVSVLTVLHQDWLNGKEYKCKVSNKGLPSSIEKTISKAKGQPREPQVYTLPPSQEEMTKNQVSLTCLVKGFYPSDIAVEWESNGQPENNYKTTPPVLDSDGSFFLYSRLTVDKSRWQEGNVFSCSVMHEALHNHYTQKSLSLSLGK
light chain: B8 light
notes: also called clone 14
B16: BAP049-hum06 (antibody, human IgG4 S228P, kappa)
heavy chain: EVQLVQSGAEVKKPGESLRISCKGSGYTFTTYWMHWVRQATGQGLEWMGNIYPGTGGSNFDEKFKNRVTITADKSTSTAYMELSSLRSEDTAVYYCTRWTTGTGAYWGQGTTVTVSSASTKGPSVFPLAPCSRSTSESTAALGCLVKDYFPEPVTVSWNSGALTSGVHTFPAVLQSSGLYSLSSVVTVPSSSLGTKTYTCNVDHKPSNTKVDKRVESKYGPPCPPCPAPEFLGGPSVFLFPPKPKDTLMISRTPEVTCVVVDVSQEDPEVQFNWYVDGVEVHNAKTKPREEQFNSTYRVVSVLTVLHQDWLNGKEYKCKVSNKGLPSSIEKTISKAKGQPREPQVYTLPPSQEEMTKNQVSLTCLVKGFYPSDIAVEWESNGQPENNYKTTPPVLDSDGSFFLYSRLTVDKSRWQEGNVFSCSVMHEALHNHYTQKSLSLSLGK
light chain: B4 light chain with V2I, S7T, L15P, Q17E, K48Q, K51R
notes: also called clone 6
B17: BAP049-hum09 (antibody, human IgG4 S228P, kappa)
heavy: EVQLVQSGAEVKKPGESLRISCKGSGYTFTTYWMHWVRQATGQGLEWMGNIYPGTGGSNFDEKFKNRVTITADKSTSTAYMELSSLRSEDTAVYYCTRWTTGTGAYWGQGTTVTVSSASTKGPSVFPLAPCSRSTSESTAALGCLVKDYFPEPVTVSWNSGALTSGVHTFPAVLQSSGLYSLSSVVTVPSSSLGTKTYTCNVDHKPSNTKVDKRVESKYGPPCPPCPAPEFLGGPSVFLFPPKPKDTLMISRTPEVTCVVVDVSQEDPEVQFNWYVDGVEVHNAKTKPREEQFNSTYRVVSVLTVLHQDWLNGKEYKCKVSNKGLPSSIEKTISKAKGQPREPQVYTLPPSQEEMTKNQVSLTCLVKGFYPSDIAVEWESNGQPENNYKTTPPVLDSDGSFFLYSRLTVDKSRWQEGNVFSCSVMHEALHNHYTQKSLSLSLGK
light: B8 light with A9D, T10F, L11Q, L13V, S14T, G16K, R18K, A19V, L21I, S22T
notes: also called humanized BAP049 clone hum09
B18: BAP049-hum07 (antibody, human IgG4 S228P, kappa)
heavy chain: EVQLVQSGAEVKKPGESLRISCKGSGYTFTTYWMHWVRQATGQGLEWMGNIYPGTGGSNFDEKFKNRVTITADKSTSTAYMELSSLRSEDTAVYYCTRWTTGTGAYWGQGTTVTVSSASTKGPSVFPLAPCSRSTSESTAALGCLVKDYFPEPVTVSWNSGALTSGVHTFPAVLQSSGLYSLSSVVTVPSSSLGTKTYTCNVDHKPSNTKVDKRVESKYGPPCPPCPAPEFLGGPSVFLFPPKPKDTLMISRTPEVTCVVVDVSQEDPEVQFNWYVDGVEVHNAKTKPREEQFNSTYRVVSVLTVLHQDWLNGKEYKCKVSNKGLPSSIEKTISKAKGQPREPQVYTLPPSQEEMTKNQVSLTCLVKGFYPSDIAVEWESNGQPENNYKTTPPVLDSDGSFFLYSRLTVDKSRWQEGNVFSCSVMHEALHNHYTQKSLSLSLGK
light chain: B8 light with Q48K, R51K
notes: also called clone 7

Columns and labels:
[1] = target: T1, Programmed Death 1 (PD-1) (UniProt Q15116 25-288, limits assumed); assay: rank of the clone among the humanized BAP049 clones by FACS data
[2] = target: T1, Programmed Death 1 (PD-1); assay: rank of the clone by competition binding against labelled murine mAb BAP049, first experiment (legends paragraph 52)
[3] = target: T1, Programmed Death 1 (PD-1); assay: rank of the clone by competition binding against labelled murine mAb BAP049, second experiment (legends paragraph 52); footnote: empty boxes means worse than 4
[4] = target: T1, Programmed Death 1 (PD-1); assay: FACS, blocking of ligand-Ig binding to PD-1, MFI of bound ligand against mAb concentration; legend paragraph 53 names 'PD-LI-Ig and PD-L2-Ig' for FIG. 8A; cells not named

T1 sequence (Q15116 25-288 limits assumed): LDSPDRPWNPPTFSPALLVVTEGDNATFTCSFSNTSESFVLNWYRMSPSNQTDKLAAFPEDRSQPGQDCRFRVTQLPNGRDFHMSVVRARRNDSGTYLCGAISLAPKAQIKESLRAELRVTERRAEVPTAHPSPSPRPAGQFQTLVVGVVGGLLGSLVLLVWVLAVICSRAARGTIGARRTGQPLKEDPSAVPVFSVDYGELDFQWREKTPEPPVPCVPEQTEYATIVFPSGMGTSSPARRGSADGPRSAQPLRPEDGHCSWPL

Binder	Ranking, FACS data [1]	Competition Binding, 1st exp. (rank) [2]	Competition Binding, 2nd exp. (rank) [3]	IC50 (read off the curve) [4]
B1	6	3	2	
B2	7	8	14	
B3	3	8	16	
B4	6	1	1	
B5				~0.9 µg/mL
B6				~0.7 µg/mL
B7	15	16	15	
B8	7	6	> 4	~1 µg/mL
B9	6	7	15	
B10	6	4	> 4	
B11	7	7	4	
B12	5	5	> 4	~1 µg/mL
B13	2	7	2	~1 µg/mL
B14	14	15	15	
B15	16	7	15	
B16	1	7	3	
B17	7	2	4	
B18	4	7	> 4	
